Results published in PMC11886768 (2025).

How the values were obtained:
AD-COP1 = AD-COP1 (UniProt P43254); test: yeast three-hybrid (Y3H) competition assay (BD-HY5, AD-COP1); conditions: read off a plot
E-COP1 = E-COP1 (UniProt P43254); test: mammalian three-hybrid (M3H) assay, GFP co-expressed as control third protein; conditions: CHO-K1 cells, 24 h, parent: est. 150, read off a plot
E-COP1, sequence (P43254 whole entry): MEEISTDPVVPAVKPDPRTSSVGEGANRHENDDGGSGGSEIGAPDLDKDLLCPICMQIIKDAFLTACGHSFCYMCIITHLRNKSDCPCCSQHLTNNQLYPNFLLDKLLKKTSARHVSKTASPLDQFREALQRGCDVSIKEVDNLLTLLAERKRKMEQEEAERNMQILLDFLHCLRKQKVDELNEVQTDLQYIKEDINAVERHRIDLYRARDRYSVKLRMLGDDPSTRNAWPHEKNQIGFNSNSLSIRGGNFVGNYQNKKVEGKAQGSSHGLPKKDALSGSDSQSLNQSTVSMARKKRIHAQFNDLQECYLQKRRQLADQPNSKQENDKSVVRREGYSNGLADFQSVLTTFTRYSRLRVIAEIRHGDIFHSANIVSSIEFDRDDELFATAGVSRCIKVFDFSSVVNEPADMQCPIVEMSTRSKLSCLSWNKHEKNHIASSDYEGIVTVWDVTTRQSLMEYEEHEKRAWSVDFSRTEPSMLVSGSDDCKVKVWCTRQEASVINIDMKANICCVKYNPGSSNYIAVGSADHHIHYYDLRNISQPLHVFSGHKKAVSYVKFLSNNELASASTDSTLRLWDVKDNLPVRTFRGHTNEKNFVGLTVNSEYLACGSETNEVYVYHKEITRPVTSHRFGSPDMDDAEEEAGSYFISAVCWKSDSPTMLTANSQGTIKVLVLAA

AD-COP1, sequence (P43254 whole entry): as above

“CCT1 (yeast three-hybrid 'bridge protein') V548A; P549A” was tested. Which other: COP1-HY5 interaction signal (β-galactosidase activity) with the CCT1 variant as bridge protein (AD-COP1; 1 day in darkness, followed by exposure to 50 μmol m−2 s−1 blue light for 1 day, no-bridge control est. 5.7, higher signal = less displacement of HY5 by the …, parent: est. 1.7) did it give?
Its other: COP1-HY5 interaction signal (β-galactosidase activity) with the CCT1 variant as bridge protein is 6.9 Miller units.

And the other: COP1-HY5 interaction signal (β-galactosidase activity) with the CCT1 variant as bridge protein (AD-COP1; darkness for 2 days, no-bridge control est. 8.5, higher signal = less displacement of HY5 by the CCT1 variant, parent: est. 3.1)?
Its other: COP1-HY5 interaction signal (β-galactosidase activity) with the CCT1 variant as bridge protein is 7.8 Miller units.

How did the response (Au (SEAP/sNLuc)) (E-COP1; blue light (10 μmol m−2 s−1)) turn out when “HY5 fused to the herpes simplex virus-derived transactivation domain (VP16) (from UniProt O24646) HY5-VPAA (VP motif to AA; positions not printed)” was run?
The response (Au (SEAP/sNLuc)) was 7.

What about the response (Au (SEAP/sNLuc)) (E-COP1; darkness) of the same substance?
Its response (Au (SEAP/sNLuc)) is 5.
